Columns and labels:
[1] = molecular target: human GPR8 (human, UniProt P48146 1-333); assay: cell-based or functional assay
[2] = molecular target: T1, human GPR7 (human, UniProt P48145 1-328); assay: cell-based or functional assay
T1 sequence: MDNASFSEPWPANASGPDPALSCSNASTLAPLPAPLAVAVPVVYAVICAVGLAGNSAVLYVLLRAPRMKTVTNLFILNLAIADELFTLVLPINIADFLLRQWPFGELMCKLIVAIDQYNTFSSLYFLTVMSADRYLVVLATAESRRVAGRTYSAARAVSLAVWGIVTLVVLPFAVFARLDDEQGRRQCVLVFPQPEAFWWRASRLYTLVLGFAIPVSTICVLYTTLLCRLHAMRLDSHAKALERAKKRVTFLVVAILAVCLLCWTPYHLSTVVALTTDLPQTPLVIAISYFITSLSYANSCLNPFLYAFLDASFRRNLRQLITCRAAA

Sequence of human GPR8 (P48146 whole entry): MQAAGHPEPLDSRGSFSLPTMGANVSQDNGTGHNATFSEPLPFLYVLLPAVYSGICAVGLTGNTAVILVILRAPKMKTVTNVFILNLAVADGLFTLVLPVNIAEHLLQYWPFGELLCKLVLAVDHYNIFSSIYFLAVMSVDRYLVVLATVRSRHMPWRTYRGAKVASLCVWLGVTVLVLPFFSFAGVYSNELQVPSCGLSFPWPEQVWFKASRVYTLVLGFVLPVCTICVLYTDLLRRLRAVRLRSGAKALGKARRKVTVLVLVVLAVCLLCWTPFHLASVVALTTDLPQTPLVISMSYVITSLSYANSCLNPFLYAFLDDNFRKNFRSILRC

Binder: WYKHVASPRYHTVGRAAGLLMGL [human neuropeptide W (1-23)]
- cAMP level in human GPR8-expressed cells, relative to FSK stimulation only [1]: 31%
- cAMP level in human GPR7-expressed cells, relative to FSK stimulation only [2]: 46%

— patent US20070082364A1 (Takeda / Millennium, published 2007)
